Results taken from patent publication US20230129812A1, “COMPOSITIONS AND METHODS FOR TREATING PULMONARY HYPERTENSION” (Acceleron Pharma Inc., priority 2020, published 2023).

Columns and labels:
BMP10 = molecular target: T1, BMP10 (Homo sapiens, UniProt O95393); experiment: Biacore ligand binding profile, ActRIIA-Fc:ALK4-Fc heterodimer vs homodimers, anti-Fc capture (Example 17, Table 14); settings: ligand BMP10, Table 14
T1 sequence (O95393 317-424): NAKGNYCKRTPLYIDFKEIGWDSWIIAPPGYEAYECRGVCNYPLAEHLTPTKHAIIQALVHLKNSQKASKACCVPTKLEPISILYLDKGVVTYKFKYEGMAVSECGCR
Method: (§1) A Biacore™-based binding assay was used to compare ligand binding selectivity of the ActRIIA-Fc:ALK4-Fc heterodimeric complex described above with that of ActRIIA-Fc and ALK4-Fc homodimeric complexes. The ActRIIA-Fc:ALK4-Fc heterodimer, ActRIIA-Fc homodimer, and ALK4-Fc homodimer were independently captured onto the system using an anti-Fc antibody. Ligands were injected and allowed to flow over the captured receptor protein. Results are summarized in Table 14 below, in which ligand off-rates (kd) most indicative of effective ligand traps are denoted in bold.

activin AC = molecular target: T2, activin AC (Homo sapiens, UniProt P08476+P55103); experiment: as above; settings: ligand Activin AC, Table 14
T2 sequence (P08476 311-426): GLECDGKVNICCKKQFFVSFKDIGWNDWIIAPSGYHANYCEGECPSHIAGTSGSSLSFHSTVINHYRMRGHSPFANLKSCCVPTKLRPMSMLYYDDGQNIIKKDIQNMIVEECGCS
T2 sequence (P55103 237-352): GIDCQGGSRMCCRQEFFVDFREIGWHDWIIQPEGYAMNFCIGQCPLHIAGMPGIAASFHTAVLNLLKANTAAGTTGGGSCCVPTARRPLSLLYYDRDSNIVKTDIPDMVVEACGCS
Method: as §1

activin B [1] = molecular target: T3, activin B (Homo sapiens, UniProt P09529); experiment: as above; settings: ligand Activin B, Table 14
T3 sequence (P09529 293-407): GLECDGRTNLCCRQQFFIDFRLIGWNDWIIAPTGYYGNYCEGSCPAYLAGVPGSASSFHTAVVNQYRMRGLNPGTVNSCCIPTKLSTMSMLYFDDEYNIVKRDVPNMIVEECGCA
Method: as §1

BMP6 = molecular target: T4, BMP6 (Homo sapiens, UniProt P22004); experiment: as above; settings: ligand BMP6, Table 14
T4 sequence (P22004 375-513): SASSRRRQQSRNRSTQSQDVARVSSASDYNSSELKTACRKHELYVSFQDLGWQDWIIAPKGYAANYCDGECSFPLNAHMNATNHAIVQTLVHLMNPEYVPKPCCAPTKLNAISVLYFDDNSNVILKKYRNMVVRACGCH
Method: as §1

GDF8 [2] = molecular target: T5, GDF8 (Homo sapiens, UniProt O14793); experiment: as above; settings: ligand GDF8, Table 14
T5 sequence (O14793 267-375): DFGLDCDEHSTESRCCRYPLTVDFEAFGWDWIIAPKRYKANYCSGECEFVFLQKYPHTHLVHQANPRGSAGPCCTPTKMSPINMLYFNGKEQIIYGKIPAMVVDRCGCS
Method: as §1

BMP7 = molecular target: T6, BMP7 (Homo sapiens, UniProt P18075); experiment: as above; settings: ligand BMP7, Table 14
T6 sequence (P18075 293-431): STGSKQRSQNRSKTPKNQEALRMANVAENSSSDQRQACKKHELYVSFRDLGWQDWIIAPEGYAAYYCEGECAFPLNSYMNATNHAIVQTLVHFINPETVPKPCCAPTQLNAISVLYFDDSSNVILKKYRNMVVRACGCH
Method: as §1

activin A [3] = molecular target: T7, activin A (Homo sapiens, UniProt P08476); experiment: as above; settings: ligand Activin A, Table 14
T7 sequence (P08476 311-426): T2 sequence (P08476 311-426)
Method: as §1

GDF11 [4] = molecular target: T8, GDF11 (Homo sapiens, UniProt O95390); experiment: as above; settings: ligand GDF11, Table 14
T8 sequence (O95390 299-407): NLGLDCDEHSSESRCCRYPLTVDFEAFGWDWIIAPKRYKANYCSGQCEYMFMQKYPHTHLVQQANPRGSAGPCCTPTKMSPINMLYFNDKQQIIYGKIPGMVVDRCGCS
Method: as §1

activin AB = molecular target: T9, activin AB (Homo sapiens, UniProt P08476+P09529); experiment: as above; settings: ligand Activin AB, Table 14
T9 sequence (P08476 311-426): T2 sequence (P08476 311-426)
T9 sequence (P09529 293-407): T3 sequence (P09529 293-407)
Method: as §1

activin B [5] = molecular target: T3, activin B; experiment: Biacore ligand binding profile, ALK4-Fc:ActRIIB-Fc heterodimer vs homodimers, anti-Fc capture (Example 13, Table 13); settings: ligand Activin B, Table 13
Method: (§2) A Biacore™-based binding assay was used to compare ligand binding selectivity of the ALK4-Fc:ActRIIB-Fc heterodimeric complex described above with that of ActRIIB-Fc and ALK4-Fc homodimer complexes. The ALK4-Fc:ActRIeB-Fc heterodimer, […], and ALK4-Fc homodimer were independently captured onto the system using an anti-Fc antibody. Ligands were injected and allowed to flow over the captured receptor protein. Results are summarized in Table 13 below, in which ligand off-rates (kd) most indicative of effective polypeptides are denoted in bold.

GDF8 [6] = molecular target: T5, GDF8; experiment: as above; settings: ligand GDF8, Table 13
Method: as §2

activin A [7] = molecular target: T7, activin A; experiment: as above; settings: ligand Activin A, Table 13
Method: as §2

GDF11 [8] = molecular target: T8, GDF11; experiment: as above; settings: ligand GDF11, Table 13
Method: as §2

KD (BMP10): No binding | KD (activin AC): No binding | KD (activin B [1]): No binding | KD (BMP6): No binding | Kd (GDF8 [2]): 15 nM | ka (GDF8 [2]): 130000 M⁻¹ s⁻¹ | kd (GDF8 [2]): 0.0019 s⁻¹ | KD (BMP7): No binding | ka (activin A [3]): 580000 M⁻¹ s⁻¹ | kd (activin A [3]): 0.012 s⁻¹ | ka (GDF11 [4]): 5e+06 M⁻¹ s⁻¹ | kd (GDF11 [4]): 0.0048 s⁻¹ | ka (activin AB): 1.8e+06 M⁻¹ s⁻¹ | kd (activin AB): 0.0036 s⁻¹ | KD (activin B [5]): No binding | Kd (GDF8 [6]): 15 nM | ka (GDF8 [6]): 130000 M⁻¹ s⁻¹ | kd (GDF8 [6]): 0.0019 s⁻¹ | ka (activin A [7]): 580000 M⁻¹ s⁻¹ | kd (activin A [7]): 0.012 s⁻¹ | Kd (GDF11 [8]): 0.27 nM | ka (GDF11 [8]): 5e+06 M⁻¹ s⁻¹ | kd (GDF11 [8]): 0.0048 s⁻¹
B1: ALK4-Fc homodimer: ALK4-Fc homodimer complex used as comparator in Examples 13 and 17 (protein)
chain: SGPRGVQALLCACTSCLQANYTCETDGACMVSIFNLDGMEHHVRTCIPKVELVPAGKPFYCLSSEDLRNTHCCYTDYCNRIDLRVPSGHLKEPEHPSMWGPVE
modifications: left off: a dimerising Fc or GST
